The source of these data is US7091002B2, “Carboxypeptidases and nucleic acids encoding same” (Novozymes, Inc., priority 1996, dated 2006).

“And” between values parts separate entries of the source, which are not always exact repeats. Equal values may be shown once. Residues, ends and D or L forms follow the SMILES beside them. *: point of attachment. Cbz = O=C(OCc1ccccc1)*

What all share (format): biochemical
The target in data set [1] is T1, Aspergillus oryzae ATCC 20386 carboxypeptidase I (Aspergillus oryzae, UniProt Q2TZ11).
T1 sequence (Q2TZ11 19-555): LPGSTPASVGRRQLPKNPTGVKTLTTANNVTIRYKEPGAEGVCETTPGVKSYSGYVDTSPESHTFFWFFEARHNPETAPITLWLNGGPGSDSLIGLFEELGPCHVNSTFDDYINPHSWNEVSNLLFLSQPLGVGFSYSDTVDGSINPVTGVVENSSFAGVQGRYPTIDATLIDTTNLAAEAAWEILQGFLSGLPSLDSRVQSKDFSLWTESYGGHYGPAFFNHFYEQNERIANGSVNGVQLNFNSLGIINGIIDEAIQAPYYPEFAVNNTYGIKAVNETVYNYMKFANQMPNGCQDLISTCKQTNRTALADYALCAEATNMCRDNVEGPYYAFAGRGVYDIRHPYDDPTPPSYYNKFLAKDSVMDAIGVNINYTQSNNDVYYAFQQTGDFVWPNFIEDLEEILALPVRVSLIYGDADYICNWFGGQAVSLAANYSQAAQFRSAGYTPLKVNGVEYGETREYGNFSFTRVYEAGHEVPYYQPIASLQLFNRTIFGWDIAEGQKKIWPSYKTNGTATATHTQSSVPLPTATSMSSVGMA
Kind of data set: Substrate specificity of the carboxypeptidase (hydrolysis of N-CBZ-Ala-X / N-CBZ-Glu-X). To be noted: 2 mM substrate, 2 hour incubation, 4.9×10^−7 M carboxypeptidase. Here is the method:
(§1) The substrate specificity of the carboxypeptidase was determined by measuring the hydrolysis of a substrate listed in Table 1 at pH 4.0 in 50 mM acetate buffer. o-Phthaldialdehyde together with dithiothreitol were used to monitor the liberation of free IIe, Glu, Lys, Arg, Asp, Asn, Gly, Phe, amd Tyr under enzymatic hydrolysis according to the procedure of Roth, M., 1971, Analytical Chemistry 43: 880. The kcat value for the hydrolysis of N-CBZ-Ala-X or N-CBZ-Glu-X was determined based on the assumption that molecular weight of the carboxypeptidase was 68 kD and that the enzyme preparation was homogeneous.

In data set [2] the target is T1, Aspergillus oryzae ATCC 20386 carboxypeptidase I. Kind of data set: Inhibition of the carboxypeptidase with 1,10-phenanthroline and phenylmethylsulfonyl fluoride. The following applies: furylacryloyl-Ala-Lys as substrate, pH 7.0, 20 mM phosphate buffer, hydrolysis monitored at 340 nm. Here is the method: Inhibition of the carboxypeptidase with 1,10-phenanthroline and phenylmethylsulfonyl fluoride was evaluated using furylacryloyl-Ala-Lys as substrate at pH 7.0 in 20 mM phosphate buffer where hydrolysis was monitored at 340 nm.

Data set [3] deals with Aspergillus oryzae ATCC 20386 carboxypeptidase I. Kind of data set: Substrate specificity of the carboxypeptidase (hydrolysis of N-CBZ-Ala-X / N-CBZ-Glu-X). To be noted: compared with literature values. As for the experimental part:
as §1

Data set [4] is described as follows: Thermostability of the carboxypeptidase (residual activity). The following applies: 10 minute incubation, 50 mM acetate buffer.
A short description of data set [5]: Specific activity of the carboxypeptidase (CPDU assay). The following applies: 0.5 mM N-CBZ-Ala-Glu, pH 4.5, 25° C. As for the experimental part:
The activity of the carboxypeptidase was determined by measuring the rate of specific hydrolysis of N-CBZ-Ala-Glu. One carboxypeptidase unit (CPDU) is the amount of carboxypeptidase which liberates 1 micromole of glutamate per minute from a 0.5 mM N-CBZ-Ala-Glu solution at pH 4.5 and 25° C. A reagent containing o-phthaldialdehyde in combination with dithiothreitol was used to monitor the liberation of free glutamate under enzymatic hydrolysis according to the procedure of Roth, 1971, supra. The o-phthaldialdehyde reagent was a solution of o-phthaldialdehyde (6 mM) and dithiothreitol (6.5 mM) in 0.1 M sodium tetraborate. Briefly, 0.05 ml of the enzyme solution in 20 mM acetate buffer, pH 4.5 was incubated with 1 ml of substrate. At regular time intervals, a 0.3 ml aliquot was withdrawn, mixed with 0.9 ml of the o-phthaldialdehyde reagent, and the absorption at A340, using a path length of 1 cm, of the resultant product was measured. Where the dependence of A340 on the incubation time was linear, the specific activity of the enzyme was calculated using the equation: specific activity=slope (optical density per min)×11.35. By this procedure, the specific activity of the purified carboxypeptidase was determined to be 11 CPDU per mg protein which is equivalent to 11 micromoles glutamate per minute per mg protein.

In a further data set the test system is Casein. Nature of the data set: Protein hydrolysis, degree of hydrolysis (DH), casein. To be noted: Casein 2% (w/v), pH 7.0, 18 hours at 50° C.; FLAVOURZYME 3 LAPU, carboxypeptidase 11.5 CPDU. Here is the method: (§2) Commercial grade soy meal, wheat gluten, casein and gelatin were used as protein substrates. The soy meal was prepared from defatted toasted soy grits 20/80/20 (Cargill BV, NL); vital wheat gluten was obtained from Crespel and Dieters, Denmark; casein was obtained as Na-Caseinate Miprodan (MD Foods, Denmark); and gelatin was obtained as Bonegelatin (DGF Stores, Denmark).
(§3) The substrates were prepared as a 2% (w/v) aqueous solution, in which the protein concentration was determined by the method of Kjeldahl. Two hundred mg of each substrate, obtained in the form of a dry composition, was dissolved in 9 ml of tap water and the pH was adjusted to 7.0. […]
(§4) The hydrolysates were cooled and the degree of hydrolysis (DH) was assayed in microtiter plates using OPA (ortho-phtaldialdehyde, Sigma Chemical Co., St. Louis, Mo.) as the detecting reagent. The DH, defined as described in by Adler-Nissen (1986, Enzymic Hydrolysis of Food Proteins, Elsevier Applied Science Publishers), was determined by reaction of the supernatant with OPA (ortho-phtaldialdehyde, Sigma Chemical Co., St. Louis, Mo.). […]
(§5) A volume of 25 μl of suitably diluted supernatant was mixed with 200 μl of OPA reagent in a microtiter plate well and allowed to react for exactly 2 minutes at 25° C. […] The degree of hydrolysis was calculated on basis of the total amount of protein in the hydrolysis mixture (not on basis of soluble protein).

A further data set relates to Gelatin. Nature of the data set: Protein hydrolysis, degree of hydrolysis (DH), gelatin. The following applies: Gelatin 2% (w/v), pH 7.0, 18 hours at 50° C.; FLAVOURZYME 3 LAPU, carboxypeptidase 11.5 CPDU. Here is the method:
as §2, §3, §4, §5

The next data set has as its system Soy Meal. Kind of data set: Protein hydrolysis, degree of hydrolysis (DH), soy meal. To be noted: Soy Meal 2% (w/v), pH 7.0, 18 hours at 50° C.; FLAVOURZYME 3 LAPU, carboxypeptidase 11.5 CPDU. As for the experimental part: as §2, §3, §4, §5
The subject of a further data set is Wheat Gluten. Nature of the data set: Protein hydrolysis, degree of hydrolysis (DH), wheat gluten. The following applies: Wheat Gluten 2% (w/v), pH 7.0, 18 hours at 50° C.; FLAVOURZYME 3 LAPU, carboxypeptidase 11.5 CPDU. As for the experimental part: as §2, §3, §4, §5
The test system of data set [6] is soy meal, wheat gluten, casein and gelatin. Kind of data set: Protein hydrolysis, DH, summary for all substrates. Here is the method: as §2, §3, §4, §5
Substrate in data set [7]: C[C@H](NC(=O)/C=C/c1ccco1)C(=O)N[C@@H](CCCCN)C(=O)O
Kind of data set: Km of the carboxypeptidase toward furylacryloyl-Ala-Lys. The following applies: other: pH 4.0, 25° C.

Consider `C[C@H](NC(=O)OCc1ccccc1)C(=O)N1CCC[C@H]1C(=O)O` [N-CBZ-Ala-Pro] (Cbz-Ala-Pro-OH), for which the “fraction of substrate solution hydrolyzed” value in data set [1] came out at 16%.

As for `c1cnc2c(c1)ccc1cccnc12` [1,10-phenanthroline], the “Inhibition of carboxypeptidase activity” value in [2] is recorded as “does not inhibit”.

For `O=S(=O)(F)Cc1ccccc1` [phenylmethylsulfonyl fluoride], the “Inhibition of carboxypeptidase activity” value in data set [2] is given as “inhibits carboxypeptidase activity completely”.

Consider `C[C@H](NC(=O)OCc1ccccc1)C(=O)N[C@@H](Cc1ccccc1)C(=O)O` [N-CBZ-Ala-Phe], for which the “kcat relative to acid carboxypeptidases O-1 and O-2 from Aspergillus oryzae” value in [3] was “at least 8.5 fold”.

B1: carboxypeptidase: carboxypeptidase purified from FLAVOURZYME broth, approximately 68 kDa serine carboxypeptidase, amino acid sequence SEQ ID NO: 2 (protein, listed as Aspergillus oryzae)
chain: MRGYEFLSVLPLVAASWALPGSTPASVGRRQLPKNPTGVKTLTTANNVTIRYKEPGAEGVCETTPGVKSYSGYVDTSPESHTFFWFFEARHNPETAPITLWLNGGPGSDSLIGLFEELGPCHVNSTFDDYINPHSWNEVSNLLFLSQPLGVGFSYSDTVDGSINPVTGVVENSSFAGVQGRYPTIDATLIDTTNLAAEAAWEILQGFLSGLPSLDSRVQSKDFSLWTESYGGHYGPAFFNHFYEQNERIANGSVNGVQLNFNSLGIINGIIDEAIQAPYYPEFAVNNTYGIKAVNETVYNYMKFANQMPNGCQDLISTCKQTNRTALADYALCAEATNMCRDNVEGPYYAFAGRGVYDIRHPYDDPTPPSYYNKFLAKDSVMDAIGVNINYTQSNNDVYYAFQQTGDFVWPNFIEDLEEILALPVRVSLIYGDADYICNWFGGQAVSLAANYSQAAQFRSAGYTPLKVNGVEYGETREYGNFSFTRVYEAGHEVPYYQPIASLQLFNRTIFGWDIAEGQKKIWPSYKTNGTATATHTQSSVPLPTATSMSSVGMA
For the molecule B1, the residual activity (usually the signal under treatment as a percentage of the control signal) in data set [4] (pH 4.0, 55° C.) was 74%; in [4] (pH 4.0, 60° C.), 65%. Further, the specific activity in data set [5] is 11 CPDU per mg protein and 11 micromoles glutamate per minute per mg protein. For the same molecule, the DH in the data set with Casein, in the data set with Gelatin, in the data set with Soy Meal and in the data set on Wheat Gluten was 0 each time. Also, the “effect on DH, enzyme alone” value in [6] was “no effect”. In [6], the “effect on the DH obtained by FLAVOURZYME when added with FLAVOURZYME” value is “enhanced”.

B2: Aspergillus oryzae ATCC 20386 carboxypeptidase I (Aspergillus oryzae RIB40) (protein)
chain: LPGSTPASVGRRQLPKNPTGVKTLTTANNVTIRYKEPGAEGVCETTPGVKSYSGYVDTSPESHTFFWFFEARHNPETAPITLWLNGGPGSDSLIGLFEELGPCHVNSTFDDYINPHSWNEVSNLLFLSQPLGVGFSYSDTVDGSINPVTGVVENSSFAGVQGRYPTIDATLIDTTNLAAEAAWEILQGFLSGLPSLDSRVQSKDFSLWTESYGGHYGPAFFNHFYEQNERIANGSVNGVQLNFNSLGIINGIIDEAIQAPYYPEFAVNNTYGIKAVNETVYNYMKFANQMPNGCQDLISTCKQTNRTALADYALCAEATNMCRDNVEGPYYAFAGRGVYDIRHPYDDPTPPSYYNKFLAKDSVMDAIGVNINYTQSNNDVYYAFQQTGDFVWPNFIEDLEEILALPVRVSLIYGDADYICNWFGGQAVSLAANYSQAAQFRSAGYTPLKVNGVEYGETREYGNFSFTRVYEAGHEVPYYQPIASLQLFNRTIFGWDIAEGQKKIWPSYKTNGTATATHTQSSVPLPTATSMSSVGMA
With B2, the Km (commonly the concentration of substrate that gives half-maximal velocity) in data set [7] was found to be 400 µM.
